Data reported in paper PMC2100146, “The Inhibition of Polo Kinase by Matrimony Maintains G2 Arrest in the Meiotic Cell Cycle” (PLoS Biology, 2007).

Target: T1, C-terminally 3x FLAG-tagged Mtrm (Drosophila melanogaster, UniProt Q23973 1-217)
T1 construct: Matrimony (Mtrm), Drosophila melanogaster, 217 amino acids; Phosphorylation detected by MS on T40, S48, S52, S124 and S137; also called Mtrm-FLAG(3x); mtrm-Flag(3x); source: UASP-mtrm-Flag(3x) expressed in ovaries under the nanos-GAL4 driver in a wild-type background, in ovary extract; not shown: 3x FLAG, C-terminal, kept
T1 sequence (looked up): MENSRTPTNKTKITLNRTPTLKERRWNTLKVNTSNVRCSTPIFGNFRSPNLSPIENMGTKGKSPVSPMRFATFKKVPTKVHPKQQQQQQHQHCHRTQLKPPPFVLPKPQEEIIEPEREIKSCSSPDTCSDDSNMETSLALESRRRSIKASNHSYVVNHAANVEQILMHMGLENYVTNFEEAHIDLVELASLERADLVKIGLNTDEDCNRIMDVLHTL
Experiment: affinity purification with mass spectrometry; anti-FLAG beads, ovary extracts expressing Mtrm-3x FLAG, eluted with 3x FLAG peptide; MudPIT; three independent purifications against five control FLAG immunoprecipitations from w1118; ratio of NSAF values
Conditions: partners not purified

B1: Polo kinase (Polo) (enzyme, UniProt P52304 1-576, looked up)
chain: MAAKPEDKSTDIPDRLVDINQRKTYKRMRFFGKGGFAKCYEIIDVETDDVFAGKIVSKKLMIKHNQKEKTAQEITIHRSLNHPNIVKFHNYFEDSQNIYIVLELCKKRSMMELHKRRKSITEFECRYYIYQIIQGVKYLHDNRIIHRDLKLGNLFLNDLLHVKIGDFGLATRIEYEGERKKTLCGTPNYIAPEILTKKGHSFEVDIWSIGCVMYTLLVGQPPFETKTLKDTYSKIKKCEYRVPSYLRKPAADMVIAMLQPNPESRPAIGQLLNFEFLKGSKVPMFLPSSCLTMAPRIGSNDTIEDSMHRKPLMEMNGIRPDDTRLESTFLKANLHDAITASAQVCRHSEDYRSDIESLYQQLTNLINGKPRILQGNLGDENTDPAAQPLFWISKWVDYSDKYGFGYQLCDEGIGVMFNDTTKLILLPNQINVHFIDKDGKETYMTTTDYCKSLDKKMKLLSYFKRYMIEHLVKAGANNVNIESDQISRMPHLHSWFRTTCAVVMHLTNGSVQLNFSDHMKLILCPRMSAITYMDQEKNFRTYRFSTIVENGVSKDLYQKIRYAQEKLRKMLEKMFT
notes: Polo kinase, Drosophila melanogaster; endogenous protein of ovaries; Polo recovered with Mtrm-3xFLAG was found phosphorylated on T182 at over 80% in all three purifications; source: endogenous, Drosophila ovary extract
- stoichiometry N: 0.96 ± 0.11
